Sequences and labels used below:
B1: Protein RESTRICTED TEV MOVEMENT 3 (Arabidopsis thaliana (Mouse-ear cress)), D5K228 (parent)
chain: MGKQFDKKITWTIKNFASLLSDLIYSDHFVVGGCKWHLRAYPKGYNNANSLSLFLGVAVPTSLPSGWRRHTKFRLTLVNQLSDKLSQSKLNELEQWFDEKTTNWGLSSMCPLNEIHAKDSGFLLNGELKIVVEIKVLETIGKLDVTEETSTITETVDVNGFQLLPSQAKSVSRMFAKHPELASDLRPKNPNLRTGYMSLLLSLIETLSQLPQQMSKDDLLDAYDALGSMRDAGFKLDWLEKKLYEVSEKKENEEASETGLQEMEEELKDMKQKCLEMEALVEKEKAKVSTAKAPISFDDIV
partner: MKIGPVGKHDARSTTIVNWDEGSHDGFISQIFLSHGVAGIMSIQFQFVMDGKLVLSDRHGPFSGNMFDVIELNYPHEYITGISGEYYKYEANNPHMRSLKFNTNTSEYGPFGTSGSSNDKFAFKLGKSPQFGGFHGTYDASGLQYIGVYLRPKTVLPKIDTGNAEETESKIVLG

In this test the parent is B1. The note with it: with jal1_arath RTM1, Q9SE37.
In the case of MGKQFDKKITWTIKNFASLLSDLIYSDHFVVGGCKWHLRAYPKGYNNANSLSLFLGVAVPTSLPSGWRRHTKFRLTLVNQLSDKLSQSKLNELEQWFDEKTTNWGLSSMCPLNEIHAKDSGFLLNGELKIVVEIKVLETIGKLDVTEETSTITETVDVNGFQLLPSQAKSVSRMFAKHPELASDLRPKNPNLRTGYMSLLLSLIETLSQLPQQMSKDDLLDAYDALGSMRDAGFKLDWLEKKLYEVSEKKENEEASETGLQEMEEELKDMKQKCLEMEALVEKKKAKVSTAKAPISFDDIV [E284K], the “effect of a mutation on the interaction” value was “decreasing interaction”.

The values are drawn from IntAct's records for PubMed 20584941.
